These molecules were tested against T1, human growth hormone secretagogue receptor (human, UniProt Q92847 1-366) (assay: (125I)ghrelin displacement, hGHS-R CHO-K1 membranes).
T1 construct: whole, on cells; also called hGHS-R; ghrelin receptor
T1 sequence (Q92847 whole entry): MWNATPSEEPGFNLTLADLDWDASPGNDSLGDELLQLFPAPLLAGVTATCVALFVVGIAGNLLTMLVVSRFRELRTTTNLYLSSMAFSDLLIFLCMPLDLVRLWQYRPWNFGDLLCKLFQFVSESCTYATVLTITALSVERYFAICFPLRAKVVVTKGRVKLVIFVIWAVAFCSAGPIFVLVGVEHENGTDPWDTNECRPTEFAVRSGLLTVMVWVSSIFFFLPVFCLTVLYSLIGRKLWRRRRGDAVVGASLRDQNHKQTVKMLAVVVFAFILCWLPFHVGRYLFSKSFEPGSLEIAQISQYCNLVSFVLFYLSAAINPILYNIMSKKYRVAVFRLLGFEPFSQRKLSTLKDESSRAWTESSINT

Row | Molecule | Ki [nM]
1 | GSXFLSPEHQRVQQRKESKKPPAKLQPR (Glu(O-hexyl) 3; C-terminal amide) [(Glu^3(O-hexyl))hGhrelin(1-28)-NH2] | 0.5

What follows are molecules tested against human growth hormone secretagogue receptor (human) (UniProt Q92847) in the same assay as above.
human growth hormone secretagogue receptor (human), sequence (Q92847 whole entry): as the sequence (Q92847 whole entry) above

Row | Molecule | Ki [nM]
2 | H-Inp-D-Bal-D-Trp-Phe-Lys-NH2 (peptide) | 0.33
3 | H-Inp-D-Bal-D-Trp-Taz-Apc-NH2 (peptide) | 0.83
4 | Inp-D-2-Nal-D-Trp-Phe-Lys-NH2 (peptide) | 0.3
5 | H-Inp-D-2-Nal-D-Trp(Ψ)-Pim (peptide) | 117
6 | H-Inp-D-Bal-D-Trp-2-Thi-Apc-NH2 (peptide) | 0.4
7 | H-Inp-D-Bip-D-Trp-Phe-NH2 (peptide) | 20
8 | H-Apc-D-Bal-D-Trp-Phe-Apc-NH2 (peptide) | 0.71
9 | H-Inp-D-2-Nal-D-Trp-Taz-Lys-NH2 (peptide) | 0.8
10 | H-Inp-D-Bal-D-Trp-Taz-Lys-NH2 (peptide) | 0.52
11 | H-Apc-D-1-Nal-D-Trp-Taz-NH2 (peptide) | 1.41
12 | H-Apc-D-Bal-D-Trp-2-Thi-Apc-NH2 (peptide) | 0.51
13 | H-Apc-D-1-Nal-D-Trp-Phe-NH2 (peptide) | 0.7
14 | H-Apc-D-Bal-D-Trp-Taz-Lys-NH2 (peptide) | 0.5
15 | H-Apc-D-Bal-D-2-Nal-Phe-Lys-NH2 (peptide) | 0.68
